Assay results reported in PMC5518674.

Biological target: T1, HisMBP-TZAP Znf9-11 (UniProt P10074 521-600)
T1 sequence: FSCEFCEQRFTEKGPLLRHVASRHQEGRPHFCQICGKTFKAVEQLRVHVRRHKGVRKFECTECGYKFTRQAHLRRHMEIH
Experiment: EMSA

B1: Telo6 (dsDNA)
DNA 1: GGTCGACTCTAGAGATCGAAGGGTTAGGGTTAGGGTTAGGGTTAGGGTTAGGGTTACGATCCCGGGTACCGAGCTCGA
DNA 2: TCGAGCTCGGTACCCGGGATCGTAACCCTAACCCTAACCCTAACCCTAACCCTAACCCTTCGATCTCTAGAGTCGACC
B1: binds.
